Source: patent US20260049138A1 (Chugai, published 2026)

biological target: T1, CD3ε homodimer protein (human, UniProt P07766 23-126, limits assumed); test: SPR Biacore T200, CD3ε homodimer on chip;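 also: Light-chain single-residue variant antibodies injected over amine-coupled CD3ε homodimer on a CM4 chip at 25 °C, bound amount divided by that of the GLS3000-containing antibody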
T1 construct: also called CD3 (CD3ε)
T1 sequence (P07766 23-126 limits assumed): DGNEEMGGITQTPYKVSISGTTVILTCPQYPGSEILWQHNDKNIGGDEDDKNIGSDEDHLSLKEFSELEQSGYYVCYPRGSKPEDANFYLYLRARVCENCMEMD

Binder	ratio of amount bound vs unaltered GLS3000
GLS3000 N30Q one-arm antibody (antibody, human IgG1, kappa, L234A L235A, N297A, name in Kabat numbering) heavy: QVQLVESGGGVVQPGRSLRLSCAASGFTFSNAWMHWVRQAPGKGLEWVAQIKAKSNNYATYYAESVKGRFTISRDDSKNSLYLQMNSLKTEDTAVYYCRYVHYGAYYGVDAWGQGTTVTVSSASTKGPSVFPLAPSSKSTSGGTAALGCLVKDYFPEPVTVSWNSGALTSGVHTFPAVLQSSGLYSLSSVVTVPSSSLGTQTYICNVNHKPSNTKVDKKVEPKSCDKTHTCPPCPAPEAAGGPSVFLFPPKPKDTLMISRTPEVTCVVVDVSHEDPEVKFNWYVDGVEVHNAKTKPREEQYASTYRVVSVLTVLHQDWLNGKEYKCKVSNKALPAPIEKTISKAKGQPREPQVYTLPPSRCELTKNQVSLSCAVKGFYPSDIAVEWESNGQPENNYKTTPPVLDSDGSFFLVSKLTVDKSRWQQGNVFSCSVMHEALHNHYTQKSLSLSPDYKDDDDK EPKSSDKTHTCPPCPAPELLGGPSVFLFPPKPKDTLMISRTPEVTCVVVDVSHEDPEVKFNWYVDGVEVHNAKTKPREEQYNSTYRVVSVLTVLHQDWLNGKEYKCKVSNKALPAPIEKTISKAKGQPREPQVCTLPPSRDELTKNQVSLWCLVKGFYPSDIAVEWESNGQPENNYKTTPPVLDSDGSFFLYSKLTVDKSRWQQGNVFSCSVMHEALHNRYTQKSLSLSP light: DIVMTQSPLSLPVTPGEPASISCRSSQSLVHSNRQTYLHWYQQKPGQAPRLLIYKVSNRFSGVPDRFSGSGSGTDFTLKISRVEAEDVGVYYCGQGTQVPYTFGQGTKLEIKRTVAAPSVFIFPPSDEQLKSGTASVVCLLNNFYPREAKVQWKVDNALQSGNSQESVTEQDSKDSTYSLSSTLTLSKADYEKHKVYACEVTHQGLSSPVTKSFNRGEC	0.87
GLS3000 N30S one-arm antibody (antibody, human IgG1, kappa, L234A L235A, N297A, name in Kabat numbering) heavy: QVQLVESGGGVVQPGRSLRLSCAASGFTFSNAWMHWVRQAPGKGLEWVAQIKAKSNNYATYYAESVKGRFTISRDDSKNSLYLQMNSLKTEDTAVYYCRYVHYGAYYGVDAWGQGTTVTVSSASTKGPSVFPLAPSSKSTSGGTAALGCLVKDYFPEPVTVSWNSGALTSGVHTFPAVLQSSGLYSLSSVVTVPSSSLGTQTYICNVNHKPSNTKVDKKVEPKSCDKTHTCPPCPAPEAAGGPSVFLFPPKPKDTLMISRTPEVTCVVVDVSHEDPEVKFNWYVDGVEVHNAKTKPREEQYASTYRVVSVLTVLHQDWLNGKEYKCKVSNKALPAPIEKTISKAKGQPREPQVYTLPPSRCELTKNQVSLSCAVKGFYPSDIAVEWESNGQPENNYKTTPPVLDSDGSFFLVSKLTVDKSRWQQGNVFSCSVMHEALHNHYTQKSLSLSPDYKDDDDK EPKSSDKTHTCPPCPAPELLGGPSVFLFPPKPKDTLMISRTPEVTCVVVDVSHEDPEVKFNWYVDGVEVHNAKTKPREEQYNSTYRVVSVLTVLHQDWLNGKEYKCKVSNKALPAPIEKTISKAKGQPREPQVCTLPPSRDELTKNQVSLWCLVKGFYPSDIAVEWESNGQPENNYKTTPPVLDSDGSFFLYSKLTVDKSRWQQGNVFSCSVMHEALHNRYTQKSLSLSP light: DIVMTQSPLSLPVTPGEPASISCRSSQSLVHSNRSTYLHWYQQKPGQAPRLLIYKVSNRFSGVPDRFSGSGSGTDFTLKISRVEAEDVGVYYCGQGTQVPYTFGQGTKLEIKRTVAAPSVFIFPPSDEQLKSGTASVVCLLNNFYPREAKVQWKVDNALQSGNSQESVTEQDSKDSTYSLSSTLTLSKADYEKHKVYACEVTHQGLSSPVTKSFNRGEC	0.29
GLS3000 N30R one-arm antibody (antibody, human IgG1, kappa, L234A L235A, N297A, name in Kabat numbering) heavy: QVQLVESGGGVVQPGRSLRLSCAASGFTFSNAWMHWVRQAPGKGLEWVAQIKAKSNNYATYYAESVKGRFTISRDDSKNSLYLQMNSLKTEDTAVYYCRYVHYGAYYGVDAWGQGTTVTVSSASTKGPSVFPLAPSSKSTSGGTAALGCLVKDYFPEPVTVSWNSGALTSGVHTFPAVLQSSGLYSLSSVVTVPSSSLGTQTYICNVNHKPSNTKVDKKVEPKSCDKTHTCPPCPAPEAAGGPSVFLFPPKPKDTLMISRTPEVTCVVVDVSHEDPEVKFNWYVDGVEVHNAKTKPREEQYASTYRVVSVLTVLHQDWLNGKEYKCKVSNKALPAPIEKTISKAKGQPREPQVYTLPPSRCELTKNQVSLSCAVKGFYPSDIAVEWESNGQPENNYKTTPPVLDSDGSFFLVSKLTVDKSRWQQGNVFSCSVMHEALHNHYTQKSLSLSPDYKDDDDK EPKSSDKTHTCPPCPAPELLGGPSVFLFPPKPKDTLMISRTPEVTCVVVDVSHEDPEVKFNWYVDGVEVHNAKTKPREEQYNSTYRVVSVLTVLHQDWLNGKEYKCKVSNKALPAPIEKTISKAKGQPREPQVCTLPPSRDELTKNQVSLWCLVKGFYPSDIAVEWESNGQPENNYKTTPPVLDSDGSFFLYSKLTVDKSRWQQGNVFSCSVMHEALHNRYTQKSLSLSP light: DIVMTQSPLSLPVTPGEPASISCRSSQSLVHSNRRTYLHWYQQKPGQAPRLLIYKVSNRFSGVPDRFSGSGSGTDFTLKISRVEAEDVGVYYCGQGTQVPYTFGQGTKLEIKRTVAAPSVFIFPPSDEQLKSGTASVVCLLNNFYPREAKVQWKVDNALQSGNSQESVTEQDSKDSTYSLSSTLTLSKADYEKHKVYACEVTHQGLSSPVTKSFNRGEC	1.86

Now from value to binder:

ratio of amount bound vs unaltered GLS3000	Binder
0.61	GLS3000 N30V one-arm antibody (antibody, human IgG1, kappa, L234A L235A, N297A, name in Kabat numbering) heavy: QVQLVESGGGVVQPGRSLRLSCAASGFTFSNAWMHWVRQAPGKGLEWVAQIKAKSNNYATYYAESVKGRFTISRDDSKNSLYLQMNSLKTEDTAVYYCRYVHYGAYYGVDAWGQGTTVTVSSASTKGPSVFPLAPSSKSTSGGTAALGCLVKDYFPEPVTVSWNSGALTSGVHTFPAVLQSSGLYSLSSVVTVPSSSLGTQTYICNVNHKPSNTKVDKKVEPKSCDKTHTCPPCPAPEAAGGPSVFLFPPKPKDTLMISRTPEVTCVVVDVSHEDPEVKFNWYVDGVEVHNAKTKPREEQYASTYRVVSVLTVLHQDWLNGKEYKCKVSNKALPAPIEKTISKAKGQPREPQVYTLPPSRCELTKNQVSLSCAVKGFYPSDIAVEWESNGQPENNYKTTPPVLDSDGSFFLVSKLTVDKSRWQQGNVFSCSVMHEALHNHYTQKSLSLSPDYKDDDDK EPKSSDKTHTCPPCPAPELLGGPSVFLFPPKPKDTLMISRTPEVTCVVVDVSHEDPEVKFNWYVDGVEVHNAKTKPREEQYNSTYRVVSVLTVLHQDWLNGKEYKCKVSNKALPAPIEKTISKAKGQPREPQVCTLPPSRDELTKNQVSLWCLVKGFYPSDIAVEWESNGQPENNYKTTPPVLDSDGSFFLYSKLTVDKSRWQQGNVFSCSVMHEALHNRYTQKSLSLSP light: DIVMTQSPLSLPVTPGEPASISCRSSQSLVHSNRVTYLHWYQQKPGQAPRLLIYKVSNRFSGVPDRFSGSGSGTDFTLKISRVEAEDVGVYYCGQGTQVPYTFGQGTKLEIKRTVAAPSVFIFPPSDEQLKSGTASVVCLLNNFYPREAKVQWKVDNALQSGNSQESVTEQDSKDSTYSLSSTLTLSKADYEKHKVYACEVTHQGLSSPVTKSFNRGEC
0.99	GLS3000 N30W one-arm antibody (antibody, human IgG1, kappa, L234A L235A, N297A, name in Kabat numbering) heavy: QVQLVESGGGVVQPGRSLRLSCAASGFTFSNAWMHWVRQAPGKGLEWVAQIKAKSNNYATYYAESVKGRFTISRDDSKNSLYLQMNSLKTEDTAVYYCRYVHYGAYYGVDAWGQGTTVTVSSASTKGPSVFPLAPSSKSTSGGTAALGCLVKDYFPEPVTVSWNSGALTSGVHTFPAVLQSSGLYSLSSVVTVPSSSLGTQTYICNVNHKPSNTKVDKKVEPKSCDKTHTCPPCPAPEAAGGPSVFLFPPKPKDTLMISRTPEVTCVVVDVSHEDPEVKFNWYVDGVEVHNAKTKPREEQYASTYRVVSVLTVLHQDWLNGKEYKCKVSNKALPAPIEKTISKAKGQPREPQVYTLPPSRCELTKNQVSLSCAVKGFYPSDIAVEWESNGQPENNYKTTPPVLDSDGSFFLVSKLTVDKSRWQQGNVFSCSVMHEALHNHYTQKSLSLSPDYKDDDDK EPKSSDKTHTCPPCPAPELLGGPSVFLFPPKPKDTLMISRTPEVTCVVVDVSHEDPEVKFNWYVDGVEVHNAKTKPREEQYNSTYRVVSVLTVLHQDWLNGKEYKCKVSNKALPAPIEKTISKAKGQPREPQVCTLPPSRDELTKNQVSLWCLVKGFYPSDIAVEWESNGQPENNYKTTPPVLDSDGSFFLYSKLTVDKSRWQQGNVFSCSVMHEALHNRYTQKSLSLSP light: DIVMTQSPLSLPVTPGEPASISCRSSQSLVHSNRWTYLHWYQQKPGQAPRLLIYKVSNRFSGVPDRFSGSGSGTDFTLKISRVEAEDVGVYYCGQGTQVPYTFGQGTKLEIKRTVAAPSVFIFPPSDEQLKSGTASVVCLLNNFYPREAKVQWKVDNALQSGNSQESVTEQDSKDSTYSLSSTLTLSKADYEKHKVYACEVTHQGLSSPVTKSFNRGEC
0.29	GLS3000 N30T one-arm antibody (antibody, human IgG1, kappa, L234A L235A, N297A, name in Kabat numbering) heavy: QVQLVESGGGVVQPGRSLRLSCAASGFTFSNAWMHWVRQAPGKGLEWVAQIKAKSNNYATYYAESVKGRFTISRDDSKNSLYLQMNSLKTEDTAVYYCRYVHYGAYYGVDAWGQGTTVTVSSASTKGPSVFPLAPSSKSTSGGTAALGCLVKDYFPEPVTVSWNSGALTSGVHTFPAVLQSSGLYSLSSVVTVPSSSLGTQTYICNVNHKPSNTKVDKKVEPKSCDKTHTCPPCPAPEAAGGPSVFLFPPKPKDTLMISRTPEVTCVVVDVSHEDPEVKFNWYVDGVEVHNAKTKPREEQYASTYRVVSVLTVLHQDWLNGKEYKCKVSNKALPAPIEKTISKAKGQPREPQVYTLPPSRCELTKNQVSLSCAVKGFYPSDIAVEWESNGQPENNYKTTPPVLDSDGSFFLVSKLTVDKSRWQQGNVFSCSVMHEALHNHYTQKSLSLSPDYKDDDDK EPKSSDKTHTCPPCPAPELLGGPSVFLFPPKPKDTLMISRTPEVTCVVVDVSHEDPEVKFNWYVDGVEVHNAKTKPREEQYNSTYRVVSVLTVLHQDWLNGKEYKCKVSNKALPAPIEKTISKAKGQPREPQVCTLPPSRDELTKNQVSLWCLVKGFYPSDIAVEWESNGQPENNYKTTPPVLDSDGSFFLYSKLTVDKSRWQQGNVFSCSVMHEALHNRYTQKSLSLSP light: DIVMTQSPLSLPVTPGEPASISCRSSQSLVHSNRTTYLHWYQQKPGQAPRLLIYKVSNRFSGVPDRFSGSGSGTDFTLKISRVEAEDVGVYYCGQGTQVPYTFGQGTKLEIKRTVAAPSVFIFPPSDEQLKSGTASVVCLLNNFYPREAKVQWKVDNALQSGNSQESVTEQDSKDSTYSLSSTLTLSKADYEKHKVYACEVTHQGLSSPVTKSFNRGEC
